What was measured:
[1] = biological target: T1, mature human hepcidin (SEQ ID NO: 9) (Homo sapiens, UniProt P81172); test: Epitope specificity: antibody binding to immobilized hepcidin surface after pre-complex with hepcidin variants (BIAcore); conditions: interpretation of Table 6
T1 construct: made in house; host or cells: recombinant
T1 sequence (P81172 60-84): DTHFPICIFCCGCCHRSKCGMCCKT
Procedure: (§1) The epitope specificity of anti-human hepcidin antibodies was evaluated by assessing ability of the antibodies to bind to mature human hepcidin (SEQ ID NO: 9) after pre-complex formation with different hepcidin variants.
(§2) Recombinant hepcidin was immobilized on a CM5 chip according to manufacturer's instructions at a flow rate 10 μL/min of running buffer (DPBS: Dulbecco's Phosphate Buffer Saline1X, GIBCO 14190, with 0.005% BIAcore surfactant P-20). The carboxylated matrix of the sensor chip was first activated with a 100 μL injection of 1:1 mixture of EDC (75 mg/mL N-ethyl-N-(dimethylamine-propyl)carbodiimide in water, from Biacore) and NHS (11.5 mg/mL N-hydroxysuccinimide in water, from Biacore). 180 μL of rhHepc (˜20 μg/ml in 10 mM Na-acetate pH4.0) was injected to immobilize onto the sensor chip at 30 μL/min. The excess reactive groups of the sensor chip were deactivated with an injection of 100 μL of ethanolamine (1.0M, from Biacore).
(§3) Forms of hepcidin used for the pre-complex were: correctly folded hepcidin as a positive control, the C1-C8, C3-C6 hepcidin variant (see Example 9), hepcidin 20 (N-terminally truncated, see Example 9) and linear hepcidin (Example 9). 1 nM solutions of antibody (2.41, 2.7, 43, and R9) were preincubated with 10 nM of each antigen at room temperature for several hours before run through the immobilized hepcidin surface. The binding signal obtained was proportional to the concentration of free antibody in solution at equilibrium.
(§4) Some antibodies require the five amino acids at the N-terminus of the molecule (e.g. Ab43 and to a lesser extent, R9).

[2] = biological target: T2, mature human hepcidin (SEQ ID NO: 9) (Homo sapiens, UniProt P81172); test: as above; conditions: interpretation of Table 6; remark: listed apart in the source
T2 construct: made in house; host or cells: recombinant
Procedure: as §1, §2, §3, §4

[3] = test system: mature human hepcidin (SEQ ID NO: 9); test: as above
Procedure: as §1, §2, §3, §4

[4] = test system: rcyno hepcidin; test: BIAcore solution equilibrium binding analysis on immobilized antibody; set-up: species or system cyno
rcyno hepcidin, sequence (as listed by the source): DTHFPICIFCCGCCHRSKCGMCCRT
Procedure: The following example describes KinExA and BIAcore binding analysis for various antibodies to recombinant cyno hepcidin (rcyno).
B) BIAcore Solution Equilibrium Binding Analysis for mAb R9 and Ab43 Binding to rcynoHepc.
Antibody surface immobilization: antibodies R9 and Ab43 were immobilized on a CM5 chip. The immobilization was performed at a flow rate 10 uL/min of running buffer (DPBS: Dulbecco's Phosphate Buffer Saline1X, GIBCO 14190, with 0.005% BIAcore surfactant P-20) according to manufacturer's instructions. The carboxylated matrix of the sensor chip was first activated with a 100 ul injection of 1:1 mixture of EDC (75 mg/mL N-ethyl-N-(dimethylamine-propyl)carbodiimide in water, from BIAcore) and NHS (11.5 mg/mL N-hydroxysuccinimide in water, from BIAcore). 180 ul of antibodies (−20 ug/ml in 10 mM Na-acetate pH4.0) was injected to immobilize onto the sensor chip at 30 uL/min. […]
BIAcore analysis: Fixed concentrations of rcynoHepc were incubated with various concentrations of mAb R9 and Ab43 at room temperature for several hours before run through the immobilized antibody surfaces. […] The equilibrium dissociation constant (KD) was calculated from nonlinear regression analysis of the competition curves using a one-curve one-site homogeneous binding model (KinEx™ software, Sapidyne Instruments Inc., Boise Id.).

[5] = biological target: T3, synthetic human hepcidin (Homo sapiens, UniProt P81172); test: Iron-responsive beta-lactamase assay in 293/Fpn/BLA cells; type: cell-based; conditions: 50 ng/mL synthetic human hepcidin, 2.5 ug/mL ferric citrate, read-out: EC50, decreased intracellular concentration of iron
T3 construct: made in house; host or cells: chemical synthesis (Fmoc solid phase), oxidatively folded
T3 sequence (P81172 60-84 limits assumed): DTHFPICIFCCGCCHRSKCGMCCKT
Procedure: The effect of anti-human hepcidin antibodies on this hepcidin-mediated iron sequestration was evaluated in vitro. […] These 293/Fpn/BLA cells, taken from a 70-80% confluent culture, were plated at 2.8×10^5 cells/mL in DMEM (Invitrogen Cat#11965) 5% FBS (Invitrogen Cat#10099-141) PSQ (Invitrogen Cat#10378-016), 90 uL/well (25,000 cells/well) in BioCoat Poly-D Lysine coated plates (Becton-Dickinson Cat#35-6640) and incubated at 37C with 5% CO2. At the end of the same day, a solution of assay medium (DMEM 5% FBS PSQ) with 100 ug/mL doxycycline was made, 10 uL/well of it added to the plate, and the plate incubated overnight or for at least 20 hours. […] Mixtures were added at 100 uL/well and incubated overnight at 37C, 5% CO2 in a cell culture incubator. Plates were then removed from the incubator and equilibrated to room temperature for 10 minutes before adding 20 uL/well of the prepared Invitrogen GeneBlazer CCF4 A/M development reagent (Invitrogen Kit# K1085) and incubating for 90 minutes in the dark. Development reagent was also added to 16 wells of a control assay plate without cells containing 100 uL assay medium (DMEM 5% FBS PSQ) and incubated for the same time. Blue & Green fluorescence signals were then read on an Envision Multilabel Reader (Perkin-Elmer Inc.) by exciting at 409 nm and reading emissions at 447 nm (blue) and 520 nm (green).

B1: Antibody Ab43: murine anti-human hepcidin monoclonal antibody generated by viral immunization; CDRs SEQ ID NOs: 16-21 (antibody, V domains shown)
VH: QIQLVQSGPELKKPGETVKISCKASGYTFTTYGMSWVKQAPGKGLKWMGWINTYSGVPTYADDFKGRFAFSLETSASTAYLQINNLKNEDTATYFCASLWYYGRAFDYWGQGTTLTVSS
VL: NIVLTQSPASLAVSLGQRATISCRASESVDSYGNSFMHWYQQKPGQPPKLLIYLASNLESGVPARFSGSGSRTDFTLTIDPVEADDAATYYCQQNNEDRTFGGGTKLEIK
[1]
  Binding to Solution Epitopes, Folded Hepcidin: ++++ (0% antibody binding to the hepcidin surface and therefore 100% inhibition by hepcidin in solution)
[2]
  Binding to Solution Epitopes, Hepc20: − (100% antibody binding to the hepcidin surface and therefore no inhibition by hepcidin in solution)
[3]; 1 nM antibody preincubated with 10 nM C1-C8, C3-C6 hepcidin variant
  Binding to Hepcidin Surface, C1-C8 C3-C6: 25%
[3]; interpretation of Table 6
  Binding to Solution Epitopes, Linear Hepcidin: − (100% antibody binding to the hepcidin surface and therefore no inhibition by hepcidin in solution)
[4]
  binding affinity to rcyno hepcidin: significant binding affinity
[5]
  EC50: 13.8 nM
